The target in test [1] is T1, human CD39 expressed at the cell surface (human, UniProt P49961 1-510).
T1 construct: On CHO transfectants, Hek-293T transfectants, Ramos and Mino tumor cells; also called huCD39; CHO-huCD39
T1 sequence: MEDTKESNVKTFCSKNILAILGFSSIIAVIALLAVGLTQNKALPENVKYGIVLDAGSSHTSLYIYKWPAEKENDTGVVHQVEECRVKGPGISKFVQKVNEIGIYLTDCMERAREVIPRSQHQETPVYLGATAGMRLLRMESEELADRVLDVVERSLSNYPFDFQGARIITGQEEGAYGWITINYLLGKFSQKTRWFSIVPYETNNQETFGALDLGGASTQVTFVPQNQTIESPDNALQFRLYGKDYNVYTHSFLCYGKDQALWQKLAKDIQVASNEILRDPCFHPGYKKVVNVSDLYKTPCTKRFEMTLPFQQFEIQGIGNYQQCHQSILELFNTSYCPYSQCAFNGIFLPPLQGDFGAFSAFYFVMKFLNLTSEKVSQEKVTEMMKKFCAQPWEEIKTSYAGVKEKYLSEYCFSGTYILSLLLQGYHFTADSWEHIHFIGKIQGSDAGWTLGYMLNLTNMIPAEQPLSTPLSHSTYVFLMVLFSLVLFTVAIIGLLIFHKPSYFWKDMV
Kind of test: flow cytometry titration on Ramos lymphoma cells (Mean of Fluorescence), panel L1. A general note: In flow cytometry, cells or beads pass a laser one at a time.

For test [2], the target named is T1, human CD39 expressed at the cell surface. Kind of test: flow cytometry titration on Ramos lymphoma cells (Mean of Fluorescence), panel L0.
For test [3] the target is unchanged. Kind of test: flow cytometry, CHO cells expressing human CD39. The method, then: Cells were incubated with various concentration of unlabeled anti-CD39 antibody from 30 μg/ml to 5×10⁻⁴ μg/ml, for 30 minutes at 4° C. After washes, cells were incubated with Goat anti-mouse H+L labeled secondary antibody for 30 min at 4° C.
Antibodies mAb1-21 were assessed for binding to CD39 by flow cytometry as described in Example 7, using CHO cells expressing human CD39 and CHO cells expressing cynomolgus (Macaca fascicularis) CD39.

For test [4] the target is unchanged. Kind of test: flow cytometry titration on Ramos lymphoma cells (Mean of Fluorescence), panel L1*.

Substitutions are numbered along the chain they refer to. Names and notes keep the numbering of the source.

B1: mAb8 H2L1 (antibody, human IgG1, V domains shown)
VH: QVQLVQSGAEVKKPGASVKVSCKASGYTFTDYNMHWVRQAPGQRLEWMGYIVPLNGGSTFNQKFKGRATITVDTSASTAYMELSSLRSEDTAVYYCARGGTRFAYWGQGTLVTVSS
VL: DIVMTQSPDSLAVSLGERATINCRASESVDNFGVSFMYWFQQKPGQPPKLLIYGASNQGSGVPDRFSGSGSGTDFTLTISSLQAEDVAVYYCQQTKEVPYTFGGGTKVEIK
On to B1, for which, in test [1], the binding result is given as “binds”.

B2: mAb5 H1L1 (antibody, human IgG1, V domains shown)
VH: QVQLVQSGAEVKKPGASVKVSCKASGYTFTDYNMHWVRQAPGQRLEWMGYIVPLNGGSTFNQKFKGRVTITVDTSASTAYMELSSLRSEDTAVYYCARGGTRFAYWGQGTLVTVS
VL: B1 VL
For B2, the binding result in test [1] is listed as “binds”.

B3: mAb20 H4L1 (antibody, human IgG1, kappa, V domains shown)
VH: B1 VH with M48I, S77R
VL: DIVMTQSPDSLAVSLGERATINCRASESVDNFGVSFMYWFQQKPGQPPKLLIYGASNQGSGVPDRFSGSGSGTDFTLTISSLQAEDVAVYYCQQTKEVPYTFGGGTKVEIKR
notes: full heavy chain carries L234A/L235E/G237A/A330S/P331S
B3: in test [1], the EC50 (read off the curve) (as a rule, the concentration needed to bring the measured effect to its halfway point) is roughly 0.8 µg/mL.

B4: mAb19 H4L0 (antibody, human IgG1, V domains shown)
VH: B1 VH with M48I, S77R
VL: B1 VL with F40Y
On to B4, for which the binding result in test [2] is on record as “binds”.

B5: mAb17 H3*L1 (antibody, human IgG1, V domains shown)
VH: B1 VH with M48I, N61S, K65Q
VL: B1 VL
For the molecule B5, the binding result in test [3] is “binds”.

B6: mAb1 H0L0 (antibody, human IgG1, V domains shown)
VH: B1 VH with A68V, V72R
VL: B1 VL with F40Y
For B6, the binding result in test [2] was “binds”.

B7: mAb13 H3L0 (antibody, human IgG1, V domains shown)
VH: B1 VH with M48I
VL: B1 VL with F40Y
Turning to B7, the binding result in test [2] is on record as “binds”.

B8: mAb15 H3L1* (antibody, human IgG1, V domains shown)
VH: B1 VH with M48I
VL: B1 VL with R24K
Regarding B8, in test [4], the binding result was “binds”.

B9: mAb7 H2L0 (antibody, human IgG1, V domains shown)
VH: B1 VH
VL: B1 VL with F40Y
B9: the binding result in test [2] was “binds”.

B10: mAb21 H4L1* (antibody, human IgG1, kappa, V domains shown)
VH: B1 VH with M48I, S77R
VL: B3 VL with R24K
Take B10: the binding result in test [4] is reported as “binds”.

B11: mAb12 H2*L1* (antibody, human IgG1, V domains shown)
VH: B1 VH with N61S
VL: B1 VL with R24K
Consider B11, for which, in test [4], the binding result is listed as “binds”.

B12: mAb6 H1L1* (antibody, human IgG1, V domains shown)
VH: B2 VH
VL: B1 VL with R24K
B12: the binding result in test [4] is listed as “binds”.

B13: mAb10 H2*L0 (antibody, human IgG1, V domains shown)
VH: B1 VH with N61S
VL: B1 VL with F40Y
As for B13, the binding result in test [2] is “binds”.

B14: mAb22 H4*L0 (antibody, human IgG1, V domains shown)
VH: B1 VH with M48I, N61S, K65Q, S77R
VL: B1 VL with F40Y
As for B14, in test [2], the binding result is “binds”.

B15: mAb24 H4*L1* (antibody, human IgG1, V domains shown)
VH: B1 VH with M48I, N61S, K65Q, S77R
VL: B1 VL with R24K
As for B15, in test [4], the binding result is “binds”.

B16: mAb9 H2L1* (antibody, human IgG1, V domains shown)
VH: B1 VH
VL: B1 VL with R24K
Consider B16, for which the binding result in test [4] was “binds”.

B17: mAb16 H3*L0 (antibody, human IgG1, V domains shown)
VH: B1 VH with M48I, N61S, K65Q
VL: B1 VL with F40Y
For B17, the binding result in test [2] is “binds”.

B18: mAb11 H2*L1 (antibody, human IgG1, V domains shown)
VH: B1 VH with N61S
VL: B1 VL
As for B18, the binding result in test [3] is “binds”.

B19: mAb2 H0L1 (antibody, human IgG1, V domains shown)
VH: B1 VH with A68V, V72R
VL: B1 VL
Take B19: the binding result in test [3] is “binds”.

B20: mAb4 H1L0 (antibody, human IgG1, V domains shown)
VH: B2 VH
VL: B1 VL with F40Y
As for B20, in test [2], the binding result was “binds”.

B21: mAb14 H3L1 (antibody, human IgG1, V domains shown)
VH: B1 VH with M48I
VL: B1 VL
Regarding B21, the binding result in test [1] is “binds”.

B22: mAb3 H0L1* (antibody, human IgG1, V domains shown)
VH: B1 VH with A68V, V72R
VL: B1 VL with R24K
As for B22, the binding result in test [4] is “binds”.

B23: mAb18 H3*L1* (antibody, human IgG1, V domains shown)
VH: B1 VH with M48I, N61S, K65Q
VL: B1 VL with R24K
Take B23: the binding result in test [4] is given as “binds”.
